# Data published in the supplement of paper PMC10266784.
# B1: library; numbered along this chain (parent)
# chain: MAAAAAAAAEQQSSNGPVKKSMREKAVERRSVNKEHNSNFKAGYIPIDEDRLHKTGLRGRKGNLAICVIILLFILAVINLIITLVIWAVIRIGPNGCDSMEFHESGLLRFKQVSDMGVIHPLYKSTVGGRRNENLVITGNNQPIVFQQGTTKLSVENNKTSITSDIGMQFFDPRTQNILFSTDYETHEFHLPSGVKSLNVQKASTERITSNATSDLNIKVDGRAIVRGNEGVFIMGKTIEFHMGGNMELKAENSIILNGSVMVSTTRLPSSSSGDQLGSGDWVRYKLCMCADGTLFKVQVTSQNMGCQISDNPCGNTH
# Variants of: B1
# Experiment: SGCB cell-surface expression functional score (HA stain, bin4 vs bin1, normalised to synonymous) (log10 ratio); higher = more cell-surface SGCB (functional)
# Outline: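 HEK293 cells stably expressing alpha-, gamma- and delta-sarcoglycan received codon-saturation libraries of HA-tagged, YFP-fused human beta-sarcoglycan by lentiviral transduction at MOI <0.1, performed in duplicate. Cells positive for YFP were sorted after 72 hours and cultured for 5–7 days, then stained on ice with Alexa Fluor 647 anti-HA and fixed. Fixed cells were sorted into four 5% intensity bins and amplicon-sequenced, and the log ratio of highest-bin to lowest-bin variant frequency, as a median over codons and transductions, gives the functional score. Per section, synonymous variants were scaled to mean 0, SD 0.5.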
row,Variant,SGCB cell-surface expression functional score (log10)
1,MAAAAAAAAEQQSSNGPVKKSMREKAVERRSVNKEHNSNFKAGYIPIDEDRLHKTGLRGRKGNLAICVIILLFILAVINLIITLVIWAVIRIGPNGCDSMEFHESGLLRFKQVSDMGVIHPLYKSTVGGRRNENLVITGNNQPIVFQQGTTKLSVENNKTSITSDIGWQFFDPRTQNILFSTDYETHEFHLPSGVKSLNVQKASTERITSNATSDLNIKVDGRAIVRGNEGVFIMGKTIEFHMGGNMELKAENSIILNGSVMVSTTRLPSSSSGDQLGSGDWVRYKLCMCADGTLFKVQVTSQNMGCQISDNPCGNTH [M168W],-2.06
2,MAAAAAAAAEQQSSNGPVKKSMREKAVERRSVNKEHNSNFKAGYIPIDEDRLHKTGLRGRKGNLAICVIILLFILAVINLIITLVIWAVIRIGPNGCDSMEFHESGLLRFKQVSDMGVIHPLYKSTVGGRRNENLVITGNNQPIVFQQGTTKLSVENNKTSITSDIGYQFFDPRTQNILFSTDYETHEFHLPSGVKSLNVQKASTERITSNATSDLNIKVDGRAIVRGNEGVFIMGKTIEFHMGGNMELKAENSIILNGSVMVSTTRLPSSSSGDQLGSGDWVRYKLCMCADGTLFKVQVTSQNMGCQISDNPCGNTH [M168Y],-1.79
3,MAAAAAAAAEQQSSNGPVKKSMREKAVERRSVNKEHNSNFKAGYIPIDEDRLHKTGLRGRKGNLAICVIILLFILAVINLIITLVIWAVIRIGPNGCDSMEFHESGLLRFKQVSDMGVIHPLYKSTVGGRRNENLVITGNNQPIVFQQGTTKLSVENNKTSITSDIGMMFFDPRTQNILFSTDYETHEFHLPSGVKSLNVQKASTERITSNATSDLNIKVDGRAIVRGNEGVFIMGKTIEFHMGGNMELKAENSIILNGSVMVSTTRLPSSSSGDQLGSGDWVRYKLCMCADGTLFKVQVTSQNMGCQISDNPCGNTH [Q169M],-1.88
4,MAAAAAAAAEQQSSNGPVKKSMREKAVERRSVNKEHNSNFKAGYIPIDEDRLHKTGLRGRKGNLAICVIILLFILAVINLIITLVIWAVIRIGPNGCDSMEFHESGLLRFKQVSDMGVIHPLYKSTVGGRRNENLVITGNNQPIVFQQGTTKLSVENNKTSITSDIGMGFFDPRTQNILFSTDYETHEFHLPSGVKSLNVQKASTERITSNATSDLNIKVDGRAIVRGNEGVFIMGKTIEFHMGGNMELKAENSIILNGSVMVSTTRLPSSSSGDQLGSGDWVRYKLCMCADGTLFKVQVTSQNMGCQISDNPCGNTH [Q169G],-1.16
5,MAAAAAAAAEQQSSNGPVKKSMREKAVERRSVNKEHNSNFKAGYIPIDEDRLHKTGLRGRKGNLAICVIILLFILAVINLIITLVIWAVIRIGPNGCDSMEFHESGLLRFKQVSDMGVIHPLYKSTVGGRRNENLVITGNNQPIVFQQGTTKLSVENNKTSITSDIGMAFFDPRTQNILFSTDYETHEFHLPSGVKSLNVQKASTERITSNATSDLNIKVDGRAIVRGNEGVFIMGKTIEFHMGGNMELKAENSIILNGSVMVSTTRLPSSSSGDQLGSGDWVRYKLCMCADGTLFKVQVTSQNMGCQISDNPCGNTH [Q169A],-1.13
6,MAAAAAAAAEQQSSNGPVKKSMREKAVERRSVNKEHNSNFKAGYIPIDEDRLHKTGLRGRKGNLAICVIILLFILAVINLIITLVIWAVIRIGPNGCDSMEFHESGLLRFKQVSDMGVIHPLYKSTVGGRRNENLVITGNNQPIVFQQGTTKLSVENNKTSITSDIGMFFFDPRTQNILFSTDYETHEFHLPSGVKSLNVQKASTERITSNATSDLNIKVDGRAIVRGNEGVFIMGKTIEFHMGGNMELKAENSIILNGSVMVSTTRLPSSSSGDQLGSGDWVRYKLCMCADGTLFKVQVTSQNMGCQISDNPCGNTH [Q169F],-1.89
7,MAAAAAAAAEQQSSNGPVKKSMREKAVERRSVNKEHNSNFKAGYIPIDEDRLHKTGLRGRKGNLAICVIILLFILAVINLIITLVIWAVIRIGPNGCDSMEFHESGLLRFKQVSDMGVIHPLYKSTVGGRRNENLVITGNNQPIVFQQGTTKLSVENNKTSITSDIGMSFFDPRTQNILFSTDYETHEFHLPSGVKSLNVQKASTERITSNATSDLNIKVDGRAIVRGNEGVFIMGKTIEFHMGGNMELKAENSIILNGSVMVSTTRLPSSSSGDQLGSGDWVRYKLCMCADGTLFKVQVTSQNMGCQISDNPCGNTH [Q169S],0.27
8,MAAAAAAAAEQQSSNGPVKKSMREKAVERRSVNKEHNSNFKAGYIPIDEDRLHKTGLRGRKGNLAICVIILLFILAVINLIITLVIWAVIRIGPNGCDSMEFHESGLLRFKQVSDMGVIHPLYKSTVGGRRNENLVITGNNQPIVFQQGTTKLSVENNKTSITSDIGMEFFDPRTQNILFSTDYETHEFHLPSGVKSLNVQKASTERITSNATSDLNIKVDGRAIVRGNEGVFIMGKTIEFHMGGNMELKAENSIILNGSVMVSTTRLPSSSSGDQLGSGDWVRYKLCMCADGTLFKVQVTSQNMGCQISDNPCGNTH [Q169E],0.46
9,MAAAAAAAAEQQSSNGPVKKSMREKAVERRSVNKEHNSNFKAGYIPIDEDRLHKTGLRGRKGNLAICVIILLFILAVINLIITLVIWAVIRIGPNGCDSMEFHESGLLRFKQVSDMGVIHPLYKSTVGGRRNENLVITGNNQPIVFQQGTTKLSVENNKTSITSDIGMNFFDPRTQNILFSTDYETHEFHLPSGVKSLNVQKASTERITSNATSDLNIKVDGRAIVRGNEGVFIMGKTIEFHMGGNMELKAENSIILNGSVMVSTTRLPSSSSGDQLGSGDWVRYKLCMCADGTLFKVQVTSQNMGCQISDNPCGNTH [Q169N],-1.92
10,MAAAAAAAAEQQSSNGPVKKSMREKAVERRSVNKEHNSNFKAGYIPIDEDRLHKTGLRGRKGNLAICVIILLFILAVINLIITLVIWAVIRIGPNGCDSMEFHESGLLRFKQVSDMGVIHPLYKSTVGGRRNENLVITGNNQPIVFQQGTTKLSVENNKTSITSDIGMCFFDPRTQNILFSTDYETHEFHLPSGVKSLNVQKASTERITSNATSDLNIKVDGRAIVRGNEGVFIMGKTIEFHMGGNMELKAENSIILNGSVMVSTTRLPSSSSGDQLGSGDWVRYKLCMCADGTLFKVQVTSQNMGCQISDNPCGNTH [Q169C],-1.24
11,MAAAAAAAAEQQSSNGPVKKSMREKAVERRSVNKEHNSNFKAGYIPIDEDRLHKTGLRGRKGNLAICVIILLFILAVINLIITLVIWAVIRIGPNGCDSMEFHESGLLRFKQVSDMGVIHPLYKSTVGGRRNENLVITGNNQPIVFQQGTTKLSVENNKTSITSDIGMKFFDPRTQNILFSTDYETHEFHLPSGVKSLNVQKASTERITSNATSDLNIKVDGRAIVRGNEGVFIMGKTIEFHMGGNMELKAENSIILNGSVMVSTTRLPSSSSGDQLGSGDWVRYKLCMCADGTLFKVQVTSQNMGCQISDNPCGNTH [Q169K],0
12,MAAAAAAAAEQQSSNGPVKKSMREKAVERRSVNKEHNSNFKAGYIPIDEDRLHKTGLRGRKGNLAICVIILLFILAVINLIITLVIWAVIRIGPNGCDSMEFHESGLLRFKQVSDMGVIHPLYKSTVGGRRNENLVITGNNQPIVFQQGTTKLSVENNKTSITSDIGMIFFDPRTQNILFSTDYETHEFHLPSGVKSLNVQKASTERITSNATSDLNIKVDGRAIVRGNEGVFIMGKTIEFHMGGNMELKAENSIILNGSVMVSTTRLPSSSSGDQLGSGDWVRYKLCMCADGTLFKVQVTSQNMGCQISDNPCGNTH [Q169I],0.44
13,MAAAAAAAAEQQSSNGPVKKSMREKAVERRSVNKEHNSNFKAGYIPIDEDRLHKTGLRGRKGNLAICVIILLFILAVINLIITLVIWAVIRIGPNGCDSMEFHESGLLRFKQVSDMGVIHPLYKSTVGGRRNENLVITGNNQPIVFQQGTTKLSVENNKTSITSDIGMLFFDPRTQNILFSTDYETHEFHLPSGVKSLNVQKASTERITSNATSDLNIKVDGRAIVRGNEGVFIMGKTIEFHMGGNMELKAENSIILNGSVMVSTTRLPSSSSGDQLGSGDWVRYKLCMCADGTLFKVQVTSQNMGCQISDNPCGNTH [Q169L],-0.69
14,MAAAAAAAAEQQSSNGPVKKSMREKAVERRSVNKEHNSNFKAGYIPIDEDRLHKTGLRGRKGNLAICVIILLFILAVINLIITLVIWAVIRIGPNGCDSMEFHESGLLRFKQVSDMGVIHPLYKSTVGGRRNENLVITGNNQPIVFQQGTTKLSVENNKTSITSDIGMHFFDPRTQNILFSTDYETHEFHLPSGVKSLNVQKASTERITSNATSDLNIKVDGRAIVRGNEGVFIMGKTIEFHMGGNMELKAENSIILNGSVMVSTTRLPSSSSGDQLGSGDWVRYKLCMCADGTLFKVQVTSQNMGCQISDNPCGNTH [Q169H],-0.86
15,MAAAAAAAAEQQSSNGPVKKSMREKAVERRSVNKEHNSNFKAGYIPIDEDRLHKTGLRGRKGNLAICVIILLFILAVINLIITLVIWAVIRIGPNGCDSMEFHESGLLRFKQVSDMGVIHPLYKSTVGGRRNENLVITGNNQPIVFQQGTTKLSVENNKTSITSDIGMPFFDPRTQNILFSTDYETHEFHLPSGVKSLNVQKASTERITSNATSDLNIKVDGRAIVRGNEGVFIMGKTIEFHMGGNMELKAENSIILNGSVMVSTTRLPSSSSGDQLGSGDWVRYKLCMCADGTLFKVQVTSQNMGCQISDNPCGNTH [Q169P],-1.46
16,MAAAAAAAAEQQSSNGPVKKSMREKAVERRSVNKEHNSNFKAGYIPIDEDRLHKTGLRGRKGNLAICVIILLFILAVINLIITLVIWAVIRIGPNGCDSMEFHESGLLRFKQVSDMGVIHPLYKSTVGGRRNENLVITGNNQPIVFQQGTTKLSVENNKTSITSDIGMTFFDPRTQNILFSTDYETHEFHLPSGVKSLNVQKASTERITSNATSDLNIKVDGRAIVRGNEGVFIMGKTIEFHMGGNMELKAENSIILNGSVMVSTTRLPSSSSGDQLGSGDWVRYKLCMCADGTLFKVQVTSQNMGCQISDNPCGNTH [Q169T],-0.04
17,MAAAAAAAAEQQSSNGPVKKSMREKAVERRSVNKEHNSNFKAGYIPIDEDRLHKTGLRGRKGNLAICVIILLFILAVINLIITLVIWAVIRIGPNGCDSMEFHESGLLRFKQVSDMGVIHPLYKSTVGGRRNENLVITGNNQPIVFQQGTTKLSVENNKTSITSDIGMVFFDPRTQNILFSTDYETHEFHLPSGVKSLNVQKASTERITSNATSDLNIKVDGRAIVRGNEGVFIMGKTIEFHMGGNMELKAENSIILNGSVMVSTTRLPSSSSGDQLGSGDWVRYKLCMCADGTLFKVQVTSQNMGCQISDNPCGNTH [Q169V],-0.23
18,MAAAAAAAAEQQSSNGPVKKSMREKAVERRSVNKEHNSNFKAGYIPIDEDRLHKTGLRGRKGNLAICVIILLFILAVINLIITLVIWAVIRIGPNGCDSMEFHESGLLRFKQVSDMGVIHPLYKSTVGGRRNENLVITGNNQPIVFQQGTTKLSVENNKTSITSDIGMRFFDPRTQNILFSTDYETHEFHLPSGVKSLNVQKASTERITSNATSDLNIKVDGRAIVRGNEGVFIMGKTIEFHMGGNMELKAENSIILNGSVMVSTTRLPSSSSGDQLGSGDWVRYKLCMCADGTLFKVQVTSQNMGCQISDNPCGNTH [Q169R],0.09
19,MAAAAAAAAEQQSSNGPVKKSMREKAVERRSVNKEHNSNFKAGYIPIDEDRLHKTGLRGRKGNLAICVIILLFILAVINLIITLVIWAVIRIGPNGCDSMEFHESGLLRFKQVSDMGVIHPLYKSTVGGRRNENLVITGNNQPIVFQQGTTKLSVENNKTSITSDIGMDFFDPRTQNILFSTDYETHEFHLPSGVKSLNVQKASTERITSNATSDLNIKVDGRAIVRGNEGVFIMGKTIEFHMGGNMELKAENSIILNGSVMVSTTRLPSSSSGDQLGSGDWVRYKLCMCADGTLFKVQVTSQNMGCQISDNPCGNTH [Q169D],-0.37
